Measured values from publication PMC6831851 (2019).

B1: neuron-derived neurotrophic factor (NENF) [human (endogenous in NTera2 and in fibroblasts)] / DJ-1 WT fused with FLAG [human] (parent complex)
chain 1: GQTPRPAERGPPVRLFTEEELARYGGEEEDQPIYLAVKGVVFDVTSGKEFYGRGAPYNALTGKDSTRGVAKMSLDPADLTHDTTGLTAKELEALDEVFTKVYKAKYPIVGYTARRILNEDGSPNLDFKPEDQPHFDIKDEF
chain 2: MASKRALVILAKGAEEMETVIPVDVMRRAGIKVTVAGLAGKDPVQCSRDVVICPDASLEDAKKEGPYDVVVLPGGNLGAQNLSESAAVKEILKEQENRKGLIAAICAGPTALLAHEIGFGSKVTTHPLAKDKMMNGGHYTYSENRVEKDGLILTSRGPGTSFEFALAIVEALNGKEVAAQVKAPLVLKD

Variants of: B1
Assay: co-immunoprecipitation (anti-FLAG IP, immunoblot with anti-NENF), band intensity; DJ-1 KO DNLCs; NENF band relative to FLAG (LC)

Point of comparison: chain 2 E163K, percent of parent 0%. Against it:
- chain 2 V51A — higher, 45%
- chain 2 C53A — higher, 23%
- chain 2 H126A — higher, 73%
